# In PMC5624674:
# B1: unnamed (parent)
# chain 1: MKTLPVLPGQAASSRPSPVEIWQILLSRLLDQHYGLTLNDTPFADERVIEQHIEAGISLCDAVNFLVEKYALVRTDQPGFSACTRSQLINSIDILRARRATGLMTRDNYRTVNNITLGKYPEAK
# chain 2: MFEPMELTNDAVIKVIGVGGGGGNAVEHMVRERIEGVEFFAVNTDAQALRKTAVGQTIQIGSGITKGLGAGANPEVGRNAADEDRDALRAALEGADMVFIAAGMGGGTGTGAAPVVAEVAKDLGILTVAVVTKPFNFEGKKRMAFAEQGITELSKHVDSLITIPNDKLLKVLGRGISLLDAFGAANDVLKGAVQGIAELITRPGLMNVDFADVRTVMSEMGYAMMGSGVASGEDRAEEAAEMAISSPLLEDIDLSGARGVLVNITAGFDLRLDEFETVGNTIRAFASDNATVVIGTSLDPDMNDELRVTVVATGIGMDKRPEITLVTNKQVQQPVMDRYQQHGMAPLTQEQKPVAKVVNDNAPQTAKEPDYLDIPAFLRKQAD
# B2: α-FtsZ fusion protein (wild-type E. coli FtsZ) [E. coli] / α-FtsZ fusion protein (wild-type E. coli FtsZ) [E. coli] (parent)
# chain 1: B1 chain 2
# chain 2: B1 chain 2
# B3: unnamed (parent)
# chain 1: B1 chain 1
# chain 2: MLKKFRGMFSNDLSIDLGTANTLIYVKGQGIVLNEPSVVAIRQDRAGSPKSVAAVGHDAKQMLGRTPGNIAAIRPMKDGVIADFFVTEKMLQHFIKQVHSNSFMRPSPRVLVCVPVGATQVERRAIRESAQGAGAREVFLIEEPMAAAIGAGLPVSEATGSMVVDIGGGTTEVAVISLNGVVYSSSVRIGGDRFDEAIINYVRRNYGSLIGEATAERIKHEIGSAYPGDEVREIEVRGRNLAEGVPRGFTLNSNEILEALQEPLTGIVSAVMVALEQCPPELASDISERGMVLTGGGALLRNLDRLLMEETGIPVVVAEDPLTCVARGGGKALEMIDMHGGDLFSEE
# Variants of: B1
# Assay: bacterial two-hybrid β-galactosidase assay
# Details: with partner chain of the complex shown; 25 μM IPTG; parent: 1.5e+03; read off a plot
row,Variant,response
1,chain 1 F65S,75 Miller Units
2,chain 1 R15C,1300 Miller Units

# Same assay, conditions: with partner chain of the complex shown; 100 μM IPTG; parent: 2e+03; read off a plot
row,Variant,response
1,chain 2 L179R,250 Miller Units
2,chain 2 F182S,260 Miller Units

# Variants of: B2
# Assay: bacterial two-hybrid β-galactosidase assay
# Details: with α-FtsZ fusion protein (wild-type E. coli FtsZ) [E. coli]; 100 μM IPTG; parent: 320; read off a plot
row,Variant,response
1,chain 1 F182S,260 Miller Units
2,chain 1 L179R,250 Miller Units

# Variants of: B3
# Assay: bacterial two-hybrid β-galactosidase assay
# Details: with partner chain of the complex shown; 100 μM IPTG; parent: 310; read off a plot
row,Variant,response
1,chain 1 R15C,130 Miller Units
2,chain 1 F65S,330 Miller Units
